These results are taken from PMC4007430.

Changes are numbered by the printed parent chain.

The target in test [1] is T1, CCL22 labeled with Alexa Fluor 647, O00626.
T1 chain: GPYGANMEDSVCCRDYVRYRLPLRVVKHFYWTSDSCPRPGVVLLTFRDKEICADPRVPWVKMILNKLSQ
As to the kind of experiment: flow cytometry on cells. The following applies: chain shown with the change;; parent: est. 47; read off a plot. For orientation: A flow cytometer gives signals particle by particle.

Test [2] has as its target CCL2 labeled with Alexa Fluor 647, P13500. Description: flow cytometry on cells. The following applies: read off a plot.
The mark [3] stands for this setting: chain shown with the change;, parent: est. 195.

Chain of CCL2 labeled with Alexa Fluor 647, P13500 (P13500 24-99): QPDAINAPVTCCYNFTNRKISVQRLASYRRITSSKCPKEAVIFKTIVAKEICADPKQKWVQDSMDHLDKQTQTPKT

B1: HA-ACKR2 (epitope-tagged human ACKR2, wild type), O00590 YYYDY to FFYDF (first, second and fourth tyrosines of the motif to F) (protein)
chain: MAATASPQPLATEDADSENSSFFFYDFLDEVAFMLCRKDAVVSFGKVFLPVFYSLIFVLGLSGNLLLLMVLLRYVPRRRMVEIYLLNLAISNLLFLVTLPFWGISVAWHWVFGSFLCKMVSTLYTINFYSGIFFISCMSLDKYLEIVHAQPYHRLRTRAKSLLLATIVWAVSLAVSIPDMVFVQTHENPKGVWNCHADFGGHGTIWKLFLRFQQNLLGFLLPLLAMIFFYSRIGCVLVRLRPAGQGRALKIAAALVVAFFVLWFPYNLTLFLHTLLDLQVFGNCEVSQHLDYALQVTESIAFLHCCFSPILYAFSSHRFRQYLKAFLAAVLGWHLAPGTAQASLSSCSESSILTAQEEMTGMNDLGERQSENYPNKEDVGNKSA
As for B1, the response in test [1] amounted to 18 MFI.

B2: HA-ACKR2 (epitope-tagged human ACKR2, wild type), O00590 YYYDY to FFFDY (first, second and third tyrosines of the motif to F) (protein)
chain: B1 chain with Y25F, F27Y
Take B2: the response in test [1] was 24 MFI.

B3: HA-ACKR2 (epitope-tagged human ACKR2, wild type), O00590 YYYDY to YFFDF (second, third and fourth tyrosines of the motif to F) (protein)
chain: B1 chain with F23Y, Y25F
For B3, in test [1], the response turned out to be 22 MFI.

B4: HA-ACKR2 (epitope-tagged human ACKR2, wild type), O00590 YYYDY to FYYDY (first tyrosine of the motif to F) (protein)
chain: B1 chain with F24Y, F27Y
Regarding B4, the response in test [2] (setting [3]) worked out at 180 MFI.

B5: HA-ACKR2 (epitope-tagged human ACKR2, wild type), O00590 YYYDY to YYYDF (fourth tyrosine of the motif to F) (protein)
chain: B1 chain with F23Y, F24Y
For the molecule B5, the response in test [2] (setting [3]) came to 180 MFI.

B6: HA-ACKR2 (epitope-tagged human ACKR2, wild type), O00590 YYYDY to FFFDF (all four tyrosines of the motif to F) (protein)
chain: B1 chain with Y25F
With B6, the response in test [2] (chain shown with the change, 10 µg/ml Alexa-CCL2, parent: est. 28) amounted to 3 MFI; in test [2] (chain shown with the change, 20 µg/ml Alexa-CCL2, parent: est. 37), 3 MFI; in test [2] (chain shown with the change, 30 µg/ml Alexa-CCL2, parent: est. 54) it was 6 MFI; in test [2] (setting [3]), 26 MFI; in test [1] it was 7.5 MFI.

B7: HA-ACKR2 (epitope-tagged human ACKR2, wild type), O00590 YYYDY to FYFDF (first, third and fourth tyrosines of the motif to F) (protein)
chain: B1 chain with F24Y, Y25F
With B7, the response in test [1] amounted to 19 MFI.

B8: HA-ACKR2 (epitope-tagged human ACKR2, wild type), O00590 YYYDY to YFYDY (second tyrosine of the motif to F) (protein)
chain: B1 chain with F23Y, F27Y
As for B8, the response in test [1] was 71 MFI.

B9: HA-ACKR2 (epitope-tagged human ACKR2, wild type), O00590 YYYDY to YYFDY (third tyrosine of the motif to F) (protein)
chain: B1 chain with F23Y, F24Y, Y25F, F27Y
With B9, the response in test [2] (setting [3]) was found to be 180 MFI.
